Assay results from patent US20130164299A1.
One block for each substance: values may come before it.

How the values were obtained:
[1] = molecular target: lectin-like transcript 1 (LLT1), recombinantly expressed on cells (human) (UniProt Q9UHP7); experiment: cell-based or functional assay
[2] = molecular target: LLT1-Fc fusion protein (human) (UniProt Q9UHP7); experiment: ELISA, coated LLT1-Fc, direct detection of the Fc portion
CLEC2A-Fc protein [3] = molecular target: CLEC2A-Fc protein (UniProt Q6UVW9); experiment: ELISA, coated CLEC2A-Fc, direct detection of the Fc portion
Sequence of CLEC2A-Fc protein (Q6UVW9 49-174): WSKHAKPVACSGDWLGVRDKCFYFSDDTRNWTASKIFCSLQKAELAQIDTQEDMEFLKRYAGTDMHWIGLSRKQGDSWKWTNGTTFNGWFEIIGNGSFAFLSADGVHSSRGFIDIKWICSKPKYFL

CLEC2D iso2-Fc [4] = experiment: ELISA, coated CLEC2D iso2-Fc, direct detection of the Fc portion
CLEC2D iso4-Fc [5] = experiment: ELISA, coated CLEC2D iso4-Fc, direct detection of the Fc portion
[6] = molecular target: LLT1-Fc fusion protein (human) (UniProt Q9UHP7); experiment: ELISA, coated LLT1-Fc, anti-mIg-HRP detection
CLEC2A-Fc protein [7] = molecular target: CLEC2A-Fc protein (UniProt Q6UVW9); experiment: ELISA, coated CLEC2A-Fc, anti-mIg-HRP detection
CLEC2D iso2-Fc [8] = experiment: ELISA, coated CLEC2D iso2-Fc, anti-mIg-HRP detection
CLEC2D iso4-Fc [9] = experiment: ELISA, coated CLEC2D iso4-Fc, anti-mIg-HRP detection
[10] = molecular target: CD20 on C1R and C1R-LLT1 cells (UniProt P11836); experiment: cell-based or functional assay
Sequence of CD20 on C1R and C1R-LLT1 cells (P11836 whole entry): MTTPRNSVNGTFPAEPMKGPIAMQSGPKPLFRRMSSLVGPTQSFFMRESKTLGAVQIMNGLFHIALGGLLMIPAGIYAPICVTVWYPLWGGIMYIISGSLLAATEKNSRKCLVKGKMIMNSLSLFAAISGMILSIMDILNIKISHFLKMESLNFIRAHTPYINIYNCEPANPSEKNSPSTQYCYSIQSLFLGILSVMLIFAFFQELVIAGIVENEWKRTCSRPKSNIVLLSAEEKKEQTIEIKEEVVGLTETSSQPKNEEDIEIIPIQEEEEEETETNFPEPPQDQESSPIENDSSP

CD161, on cells = CD161, on cells (UniProt Q12918); experiment: cell-based or functional assay

Sequence of lectin-like transcript 1 (LLT1), recombinantly expressed on cells (human) (Q9UHP7 whole entry, the tested form may be a part): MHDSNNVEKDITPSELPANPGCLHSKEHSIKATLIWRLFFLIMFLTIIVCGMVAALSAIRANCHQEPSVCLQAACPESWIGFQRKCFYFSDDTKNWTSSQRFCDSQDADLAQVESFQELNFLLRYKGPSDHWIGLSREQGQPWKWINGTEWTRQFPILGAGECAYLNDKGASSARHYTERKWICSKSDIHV
Sequence of LLT1-Fc fusion protein (human) (Q9UHP7 60-191 limits assumed): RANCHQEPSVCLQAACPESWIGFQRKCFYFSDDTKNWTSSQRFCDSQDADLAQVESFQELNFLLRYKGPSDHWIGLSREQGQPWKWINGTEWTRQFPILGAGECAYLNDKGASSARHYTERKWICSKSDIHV

Substance: MAB3480 (antibody)
- % CD107a+ NK cells (NK cells + C1R-LLT1) [1]: 4.7%
- % IFN-γ+ NK cells (NK cells + C1R-LLT1) [1]: 3%
- OD [6]: 1.21 OD
- OD (CLEC2A-Fc protein [7]): 0.104 OD
- OD (CLEC2D iso2-Fc [8]): 0.117 OD
- OD (CLEC2D iso4-Fc [9]): 0.112 OD

Substance: anti-CD20 (rituximab) (antibody)
- ADCC: specific lysis of C1R and C1R-LLT1 cells by NK cells (chromium release); antibody concentration giving lysis [10]: > 0.16 mg/mL

Substance: anti-CD161 mAb 191B8 (antibody)
- % CD107a+ NK cells (NK cells + C1R-LLT1) (CD161, on cells): 13.2%
- % IFN-γ+ NK cells (NK cells + C1R-LLT1) (CD161, on cells): 7.4%

Now from value to substance:

- % CD107a+ NK cells (NK cells + C1R-LLT1) [1]: 5.3%
- % IFN-γ+ NK cells (NK cells + C1R-LLT1) [1]: 3.3%
Substance: AF3480 (antibody)

- OD [2]: 1.08 OD
- OD (CLEC2A-Fc protein [3]): 1.15 OD
- OD (CLEC2D iso2-Fc [4]): 1.01 OD
- OD (CLEC2D iso4-Fc [5]): 1.04 OD
Substance: HRP-conjugated anti-human Ig antibody

- % CD107a+ NK cells (NK cells + C1R-LLT1) (CD161, on cells): 8.1%
- % IFN-γ+ NK cells (NK cells + C1R-LLT1) (CD161, on cells): 5.4%
Substance: anti-CD161 mAb DX12 (antibody)

- % CD107a+ NK cells (NK cells + C1R-LLT1) (CD161, on cells): 9.5%
- % CD107a+ NK cells, Raji target cells (no mAb 10.3) (CD161, on cells): 13.1%
- % CD107a+ NK cells, Ramos target cells (no mAb 8.1) (CD161, on cells): 10.9%
- % CD107a+ NK cells, SUDHL4 target cells (no mAb 11.6) (CD161, on cells): 17.5%
- % IFN-γ+ NK cells (NK cells + C1R-LLT1) (CD161, on cells): 5.3%
Substance: anti-CD161 mAb HP3G10 (antibody)
